The chains are these.
T1: SIP2 D1 (Plasmodium falciparum, UniProt C6KSN9 177-235)
T1 sequence: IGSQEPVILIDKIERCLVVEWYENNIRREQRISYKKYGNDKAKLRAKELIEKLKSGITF

B1: GTGCAC_site9511 (dsDNA)
DNA 1: TTTATATTTATGTAGGTGCATTTGTTTACAACATAT
DNA 2: ATATGTTGTAAACAAATGCACCTACATAAATATAAA
B2: GTGCAC_site10740 (dsDNA)
DNA 1: AAAAATTAACAAAAGGTGCAATTTATTTATTAACGG
DNA 2: CCGTTAATAAATAAATTGCACCTTTTGTTAATTTTT
B3: GTGCAC_site10688 (dsDNA)
DNA 1: AGTGACACCAAAGGGGTGCAATGAAATTAAAAATAT
DNA 2: ATATTTTTAATTTCATTGCACCCCTTTGGTGTCACT
B4: GTGCAC_site10066 (dsDNA)
DNA 1: TAAACATATAGAGGGGTGCAAAGAATTGTAAAATTT
DNA 2: AAATTTTACAATTCTTTGCACCCCTCTATATGTTTA
B5: GTGCAC_site9862 (dsDNA)
DNA 1: ACACATACACATTAGGTGCACATAATTCAATATTAC
DNA 2: GTAATATTGAATTATGTGCACCTAATGTGTATGTGT
B6: GTGCAC_site10274 (dsDNA)
DNA 1: CAACCTTTTTTGTTGGTGCATAATTTTTTTTTCTTT
DNA 2: AAAGAAAAAAAAATTATGCACCAACAAAAAAGGTTG
B7: GTGCAC_site10141 (dsDNA)
DNA 1: ACCCATTTTAATTTAGTGCACATTTTACCTTTATAC
DNA 2: GTATAAAGGTAAAATGTGCACTAAATTAAAATGGGT
B8: GTGCAC_site9760 (dsDNA)
DNA 1: ATAATTATTCTTATGGTGCACTGAATATACATGTTG
DNA 2: CAACATGTATATTCAGTGCACCATAAGAATAATTAT
B9: GTGCAC_site10547 (dsDNA)
DNA 1: CGTTGGTATTAAAAGGTGCAATGAAATAATATATTA
DNA 2: TAATATATTATTTCATTGCACCTTTTAATACCAACG
B10: GTGCAC_site10429 (dsDNA)
DNA 1: TATAAGTGCTCAACGGTGCATTTATAGAAGTTAAAC
DNA 2: GTTTAACTTCTATAAATGCACCGTTGAGCACTTATA
B11: GTGCAC_site10388 (dsDNA)
DNA 1: ATTATATTTATGTTGGTGCATTATACATGAAATTTA
DNA 2: TAAATTTCATGTATAATGCACCAACATAAATATAAT
B12: GTGCAC_site10759 (dsDNA)
DNA 1: ATTAAATTTCCTTGAGTGCACATTTTGTTAAAATAT
DNA 2: ATATTTTAACAAAATGTGCACTCAAGGAAATTTAAT
B13: GTGCAC_site10559 (dsDNA)
DNA 1: TAAATATTTTTATGGGTGCGTTCTTTAGCGCAATTT
DNA 2: AAATTGCGCTAAAGAACGCACCCATAAAAATATTTA
B14: GTGCAC_site10397 (dsDNA)
DNA 1: ATATATAATAAACAGGTGCATTGTTTTATTTTGTAT
DNA 2: ATACAAAATAAAACAATGCACCTGTTTATTATATAT
B15: GTGCAC_site10569 (dsDNA)
DNA 1: TACTATTATAAATATGTGCACTTCAATAATATACTA
DNA 2: TAGTATATTATTGAAGTGCACATATTTATAATAGTA
B16: GTGCAC_site9720 (dsDNA)
DNA 1: TATATTAAAAAAGAGGTGCATTCGTAAGAGGTTAAA
DNA 2: TTTAACCTCTTACGAATGCACCTCTTTTTTAATATA
B17: GTGCAC_site10377 (dsDNA)
DNA 1: GAATAAATATTAAATGTGCACTTGAATAGATGTAAA
DNA 2: TTTACATCTATTCAAGTGCACATTTAATATTTATTC
B18: GTGCAC_site10505 (dsDNA)
DNA 1: ATTATTACTTTTTGAGTGCACATACACACAGACATA
DNA 2: TATGTCTGTGTGTATGTGCACTCAAAAAGTAATAAT
B19: GTGCAC_site10082 (dsDNA)
DNA 1: ATAATAACTTGTAAGGTGCATTTTATGTTTTCTTAA
DNA 2: TTAAGAAAACATAAAATGCACCTTACAAGTTATTAT
B20: GTGCAC_site10713 (dsDNA)
DNA 1: TTTTTTTTTCAAGAGGTGCGTGTATTTTAACAAAAA
DNA 2: TTTTTGTTAAAATACACGCACCTCTTGAAAAAAAAA
B21: GTGCAC_site10187 (dsDNA)
DNA 1: TTAAAAAATAACAAGGTGCAAATAGGTTTATAAAAT
DNA 2: ATTTTATAAACCTATTTGCACCTTGTTATTTTTTAA
B22: GTGCAC_site9937 (dsDNA)
DNA 1: TTTCACATATATATGGTGCATATTTTATGTGTAAAT
DNA 2: ATTTACACATAAAATATGCACCATATATATGTGAAA
B23: GTGCAC_site10197 (dsDNA)
DNA 1: TCCATATGCAAACTGGTGCACAAGTAGCTTTTATAT
DNA 2: ATATAAAAGCTACTTGTGCACCAGTTTGCATATGGA
B24: GTGCAC_site10328 (dsDNA)
DNA 1: AAATTCTGCATCGAGGTGCGCCATAAAAATTGTGGT
DNA 2: ACCACAATTTTTATGGCGCACCTCGATGCAGAATTT
B25: GTGCAC_site10403 (dsDNA)
DNA 1: CTGTAAAATGTGATGGTGCATATTAATTTAGTTGTA
DNA 2: TACAACTAAATTAATATGCACCATCACATTTTACAG
B26: GTGCAC_site10385 (dsDNA)
DNA 1: GTGGTTGTAATGGTGGTGCATATTGTATATTATGTT
DNA 2: AACATAATATACAATATGCACCACCATTACAACCAC
B27: GTGCAC_site10448 (dsDNA)
DNA 1: TATTAATTTAAATGGGTGCAAAACCTATATAAATAT
DNA 2: ATATTTATATAGGTTTTGCACCCATTTAAATTAATA
B28: GTGCAC_site10002 (dsDNA)
DNA 1: TATAAGGCAATAATAGTGCACTAAGATATATAATGA
DNA 2: TCATTATATATCTTAGTGCACTATTATTGCCTTATA
B29: GTGCAC_site9914 (dsDNA)
DNA 1: TGGCTTTCCCTGCCGGTGCATTAACATTTTTTACAT
DNA 2: ATGTAAAAAATGTTAATGCACCGGCAGGGAAAGCCA
B30: GTGCAC_site9418 (dsDNA)
DNA 1: ATGATATATTTAATAGTGCACTAATTAAAATTATTA
DNA 2: TAATAATTTTAATTAGTGCACTATTAAATATATCAT

The first series has as its target T1, SIP2 D1. Put plainly: gcPBM; about 25 ug protein; PBS, 1% milk, 0.2 mg/ml BSA, salmon testes DNA, 0.03% Triton X-100. To be noted: tags: N-terminal GST (pGEX-4T-1), kept; label: surface-attached array probe.
With B1, the binding signal was 10.3 ln median PBM intensity, better of two orientations.
The same measure, in the same setting: with B2 the figure was 10.9 ln median PBM intensity, better of two orientations; with B3, 10.6 ln median PBM intensity, better of two orientations.
B4: the binding signal is 10.8 ln median PBM intensity, better of two orientations.
The same measure, in the same setting: to B5 belongs 11.3 ln median PBM intensity, better of two orientations; to B6, 10.2 ln median PBM intensity, better of two orientations; to B7, 10.5 ln median PBM intensity, better of two orientations.
Still for that read-out and setting: with B8 the figure was 11 ln median PBM intensity, better of two orientations; with B9, 10.7 ln median PBM intensity, better of two orientations.
The same measure, in the same setting: to B10 belongs 10.8 ln median PBM intensity, better of two orientations.
As to B11, the binding signal was 10.2 ln median PBM intensity, better of two orientations.
Still for that read-out and setting: with B12 the figure was 10.7 ln median PBM intensity, better of two orientations; with B13, 10.4 ln median PBM intensity, better of two orientations; with B14, 10.5 ln median PBM intensity, better of two orientations.
Same read-out and setting: to B15 belongs 10.4 ln median PBM intensity, better of two orientations; to B16, 10.6 ln median PBM intensity, better of two orientations; to B17, 10.3 ln median PBM intensity, better of two orientations.
For the molecule B18, the binding signal was 10.6 ln median PBM intensity, better of two orientations.
Still for that read-out and setting: with B19 the figure was 10.8 ln median PBM intensity, better of two orientations; with B20, 10.3 ln median PBM intensity, better of two orientations.
Still for that read-out and setting: to B21 belongs 10.3 ln median PBM intensity, better of two orientations; to B22, 10.5 ln median PBM intensity, better of two orientations.
On the same count and under the same terms, with B23 the figure was 11 ln median PBM intensity, better of two orientations; with B24, 10.9 ln median PBM intensity, better of two orientations; with B25, 10.8 ln median PBM intensity, better of two orientations.
For the molecule B26, the binding signal is 10.7 ln median PBM intensity, better of two orientations.
The same measure, in the same setting: with B27 the figure was 11.1 ln median PBM intensity, better of two orientations.

The next series addresses AP2-I D3 (Plasmodium falciparum, UniProt Q8IJW6 910-1027). The description is as above. To be noted: tags: N-terminal GST (pGEX-4T-1), kept; label: surface-attached array probe.
Take B28: the binding signal is 12.3 ln median PBM intensity, better of two orientations.
Still for that read-out and setting: to B29 belongs 12.3 ln median PBM intensity, better of two orientations; to B30, 12.4 ln median PBM intensity, better of two orientations.
